What was measured:
[1] = target: T1, androgen receptor (Homo sapiens, UniProt P10275); assay type: cell-based; parameters: expressed in transfected cells
T1 sequence (P10275 1-920): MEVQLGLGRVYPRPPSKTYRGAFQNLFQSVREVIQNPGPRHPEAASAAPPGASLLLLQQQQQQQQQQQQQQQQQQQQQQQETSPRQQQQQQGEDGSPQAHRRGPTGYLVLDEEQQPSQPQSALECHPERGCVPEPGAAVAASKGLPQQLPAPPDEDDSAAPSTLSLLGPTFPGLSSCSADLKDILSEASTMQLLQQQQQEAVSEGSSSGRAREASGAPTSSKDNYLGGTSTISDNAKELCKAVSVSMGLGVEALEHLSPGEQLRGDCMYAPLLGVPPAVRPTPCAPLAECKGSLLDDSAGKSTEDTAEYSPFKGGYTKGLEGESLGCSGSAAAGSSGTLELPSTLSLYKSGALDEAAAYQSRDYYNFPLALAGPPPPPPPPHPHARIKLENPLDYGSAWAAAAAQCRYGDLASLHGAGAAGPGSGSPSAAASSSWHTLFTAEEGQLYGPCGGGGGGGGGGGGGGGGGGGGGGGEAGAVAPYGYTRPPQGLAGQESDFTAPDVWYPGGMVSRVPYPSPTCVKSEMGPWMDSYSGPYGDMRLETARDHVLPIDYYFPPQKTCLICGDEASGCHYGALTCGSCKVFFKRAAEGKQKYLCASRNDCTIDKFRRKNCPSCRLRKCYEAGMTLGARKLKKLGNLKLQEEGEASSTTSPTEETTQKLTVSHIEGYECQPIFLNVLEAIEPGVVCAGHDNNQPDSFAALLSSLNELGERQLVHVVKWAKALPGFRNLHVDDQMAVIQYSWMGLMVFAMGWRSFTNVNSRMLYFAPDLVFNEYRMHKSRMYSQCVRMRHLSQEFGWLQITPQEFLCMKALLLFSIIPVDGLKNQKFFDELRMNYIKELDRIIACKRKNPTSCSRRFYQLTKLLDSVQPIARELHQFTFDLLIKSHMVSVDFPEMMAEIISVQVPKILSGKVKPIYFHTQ
Source text: We used a mammalian two-hybrid system to determine specificities of the AR-binding peptides previously identified, through screening of the aforementioned yeast library, as ligand-dependent in their binding activity. Ligand was provided to the cells so the interaction could be observed. The human hepatoma cell line, Huh-7, was used as the recipient of two-hybrid vectors, pM and pVP16 (Clontech) (FIGS. 6A and 6B), containing fusions with peptide and AR, respectively. According to Clontech literature, the Clontech vectors pM and VP16 generate fusions of protein X with the GAL4 DNA-BD and fusions of protein Y with the VP16AD, in the Mammalian MM Two-Hybrid Assay Kit (#K1602-1). (Note: pM and VP16 contain unique cloning sites in the same order and reading frame as the DNA-BD and AD, respectively, vectors in the yeast […] Two-Hybrid Systems.) A third vector, pG5CAT, provides a CAT reporter gene under the control of a GAL4-responsive element and minimal promoter of the adenovirus E1b. The three vectors are cotransfected into any suitable mammalian host cell line by standard methods. The interaction between proteins X and Y is then assayed by measuring CAT gene expression by any standard method. In the absence of activation (i.e., no protein-protein interaction), the minimal E1b promoter will not express significant levels of CAT.
Briefly, cells are seeded in a 24-well culture plate to a density of 50-80% confluence in phenol red-free media containing charcoal-dextran stripped fetal bovine serum (10%). Following incubation overnight, cells are transfected with plasmids pM-peptide, pVP16-AR, pCMV-b-gal, and p5XGAL-Luc3 DNAs using lipofectamine 2000 (LifeTech) according to the manufacturer's protocol. Transfections are allowed to proceed for 6 hours and the transfection media is aspirated and replaced with recovery media for 18 hours. Following the recovery period, cells are treated with compound for 24 hours prior to cell harvesting. Cells are washed with PBS and then lysed using the lysis buffer from the Galacto-Light Plus β-galactosidase assay kit (Tropix). Assays for luciferase and β-galactosidase were performed as described by the manufacturer. Peptide/AR interactions are described in terms of the luciferase activity normalized for transfection efficiency using β-galactosidase activity (see FIG. 4A). Two types of useful information arose from these methods: 1) we generated a panel of useful peptide probes to analyze the conformational state of AR, and 2) we “fingerprinted” AR modulators with respect to AR conformation (FIG. 4B). […] FIG. 4B is the converse of 4A. It compares the ability of six ligands (DHT, MPA, CYP, RU486, FLUT and DHEAs to interact with AR in the presence of each of four peptides (D30, 5G11, B8H3 and […]). Thus, it is a “fingerprint” of each of the six ligands using a four peptide panel. (Note that “1269” and D30” refer to the same peptide.)

[2] = target: T1, androgen receptor; experiment: Yeast two-hybrid screening of unbiased X15 peptide library, ligand induced β-galactosidase activity (FIG. 3, Table 503); assay type: cell-based; parameters: expressed in transfected cells; host or cells: Saccharomyces cerevisiae PJ69-4α; ligand induced β-galactosidase activity, No Lig / ligand induced β-galactosidase activity, DHT / ligand induced β-galactosidase activity, CPA / ligand induced β-galactosidase activity, RU / ligand induced β-galactosidase activity, Test / ligand induced β-galactosidase activity, MPA: unit not given here
Source text: Our library contained predominantly 15 random amino acid residues/peptide in order to identify motifs that might interact with nuclear receptor domains. If ligand is provided to the cells, one can screen for peptides that interact with the ligand-bound receptor. […] Included at the ends of the oligonucleotide were the synthetic restriction endonuclease cleavage sites, EcoRI or Mfe I (5′ end) and Sal I (3′ end). Oligonucleotides were annealed, then cleaved with excess restriction endonuclease and purified on agarose gels. The purified set of oligonucleotides was subcloned as an in-frame carboxy-terminal fusion to a Gal4 DNA binding domain (plasmid vector pMA424 derivative). […] The transformation mix was divided and grown on plates of selective media containing ligand and 25 mM 3-aminotriazole at 30° C. until colonies appeared in 3-7 days. […] Dihydrotestosterone (DHT) and medroxyprogesterone (MPA) were added to the media at 100 nM to identify peptides that interact with the receptor in the presence of ligand. After colonies appeared they were picked and dispersed into individual wells of a 96-well plate containing rich media (YPD).
To determine ligand dependence, two microliter aliquots were removed from the cell suspension, and arrayed and spotted onto each of two rectangular agar plates, one with 100 nM ligand and one without ligand. Growth was monitored daily.
A secondary test of ligand dependent activation was performed using the integrated GAL4-driven lacZ gene. Cell suspensions of the initial positive clones were diluted 20-fold into 20 microliters of rich media in a microplate and grown overnight at 30° C. in the presence and absence of ligand. Microplates were centrifuged for 5 minutes at 3000 rpm in a swinging table top centrifuge to pellet the yeast cells, and the overlying media was aspirated. […] An OD650 density determination was made to normalize the β-galactosidase activity. β-galactosidase activity was monitored following the addition of buffer containing chlorophenol red-β-galactopyranoside (CPRG) (Boehringer Mannheim) substrate at a final concentration of 0.5 mM. […] The maximum slope value of this measurement was normalized to cell density from the initial OD650 value, and the relative ligand dependence of β-galactosidase was determined by comparing the values plus and minus ligand.
In FIG. 3, all of these ligands were tested. The plasmids from true positives were extracted using standard yeast extraction protocols and re-transformed to verify the positive phenotype.

[3] = target: T1, androgen receptor; assay type: cell-based; parameters: expressed in transfected cells; remark: listed apart in the source
[4] = target: ER β (immobilized, in vitro phage assays) (UniProt Q92731 1-530, limits assumed); experiment: phage ELISA; ICI 182,780 1 µM
[5] = target: T2, Gal4 transcriptional activation domain (AD) fused in frame with AR (pGAD-C2) (yeast, UniProt P10275 1-920, limits assumed); experiment: cell-based or functional assay
T2 sequence (looked up): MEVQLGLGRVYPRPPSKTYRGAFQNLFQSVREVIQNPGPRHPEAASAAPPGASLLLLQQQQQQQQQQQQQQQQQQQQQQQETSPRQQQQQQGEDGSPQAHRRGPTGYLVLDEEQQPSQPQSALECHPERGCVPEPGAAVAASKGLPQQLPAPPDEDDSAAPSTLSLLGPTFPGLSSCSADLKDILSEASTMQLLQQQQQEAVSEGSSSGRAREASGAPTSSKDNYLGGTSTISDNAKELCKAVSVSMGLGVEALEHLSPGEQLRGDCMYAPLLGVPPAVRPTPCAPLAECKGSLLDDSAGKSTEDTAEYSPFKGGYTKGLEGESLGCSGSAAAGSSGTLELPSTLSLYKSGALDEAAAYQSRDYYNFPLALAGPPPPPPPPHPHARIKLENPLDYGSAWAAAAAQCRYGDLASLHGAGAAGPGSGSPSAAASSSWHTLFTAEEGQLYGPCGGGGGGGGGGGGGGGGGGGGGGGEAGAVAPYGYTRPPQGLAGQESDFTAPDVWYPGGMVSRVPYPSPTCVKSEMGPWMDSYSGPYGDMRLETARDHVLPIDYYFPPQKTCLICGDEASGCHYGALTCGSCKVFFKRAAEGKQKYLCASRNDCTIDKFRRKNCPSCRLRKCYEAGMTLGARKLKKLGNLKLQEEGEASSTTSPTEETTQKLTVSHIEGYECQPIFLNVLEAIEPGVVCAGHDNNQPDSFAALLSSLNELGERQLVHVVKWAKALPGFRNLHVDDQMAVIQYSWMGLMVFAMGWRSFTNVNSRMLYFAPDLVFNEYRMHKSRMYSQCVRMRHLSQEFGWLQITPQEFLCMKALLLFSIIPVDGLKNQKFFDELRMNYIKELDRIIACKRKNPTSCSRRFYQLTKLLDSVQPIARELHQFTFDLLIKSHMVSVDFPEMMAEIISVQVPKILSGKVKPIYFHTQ

[6] = target: T2, Gal4 transcriptional activation domain …; experiment: cell-based or functional assay; remark: listed apart in the source

Chain of ER β (immobilized, in vitro phage assays) (Q92731 whole entry, the tested form may be a part): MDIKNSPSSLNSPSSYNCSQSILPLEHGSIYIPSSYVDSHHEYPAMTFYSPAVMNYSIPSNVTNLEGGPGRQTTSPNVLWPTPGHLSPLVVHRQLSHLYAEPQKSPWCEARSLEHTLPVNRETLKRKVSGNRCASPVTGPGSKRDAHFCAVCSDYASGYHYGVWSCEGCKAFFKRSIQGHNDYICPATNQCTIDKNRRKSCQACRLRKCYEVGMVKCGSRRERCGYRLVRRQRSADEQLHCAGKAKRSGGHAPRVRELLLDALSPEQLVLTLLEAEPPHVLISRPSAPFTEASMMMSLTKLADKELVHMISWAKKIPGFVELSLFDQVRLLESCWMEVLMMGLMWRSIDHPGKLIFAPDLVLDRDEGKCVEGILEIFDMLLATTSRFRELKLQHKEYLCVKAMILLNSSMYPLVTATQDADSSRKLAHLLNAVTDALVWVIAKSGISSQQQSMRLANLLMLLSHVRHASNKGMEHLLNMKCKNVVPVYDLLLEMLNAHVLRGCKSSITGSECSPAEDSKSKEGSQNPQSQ

**Q.** Which results are given for EFQQCMCAEVKSWLGGSLDLQPS* [B8E9]?
**A.** luciferase normalized to β-galactosidase, CYP. [1]: 16.02; luciferase normalized to β-galactosidase, DHT ([1]; mammalian two-hybrid, Huh-7 cells, ligand DHT): 19.64; luciferase normalized to β-galactosidase, MPA ([1]; mammalian two-hybrid, Huh-7 cells, ligand MPA): 18.51; luciferase normalized to β-galactosidase, RU486 ([1]; mammalian two-hybrid, Huh-7 cells, ligand RU486): 10.1916; luciferase normalized to β-galactosidase, no compound ([1]; mammalian two-hybrid, Huh-7 cells, no compound): 0.2091; Fold induction ([2]; untitled table before Table 503, values match DHT / No Lig of Table 503): 4; ligand induced β-galactosidase activity, CPA ([2]; yeast two-hybrid, ligand CPA): 0.5635; ligand induced β-galactosidase activity, DHT ([2]; yeast two-hybrid, ligand DHT): 1.75; ligand induced β-galactosidase activity, RU ([2]; yeast two-hybrid, ligand RU): 0.8; ligand induced β-galactosidase activity, No Lig ([2]; yeast two-hybrid, no ligand): 0.4989; Binding to the androgen receptor in the presence of both agonists and known antagonists ([3]; ligand present): displays binding; Binding to the androgen receptor in the absence of ligand ([3]; no ligand): not

**Q.** With SSPGSREWFKDMLSR (also called 14Tβ; 14T-β) [α/β V (AB5)] as the molecule, how does the “phage ELISA grade” value [4] read?
**A.** 0

B1: B2A7 (peptide)
chain: MKLLSSIEQACDICRLKKLKCSKEKPKCAKCLKNNWECRYSPKTKRSPLTRAHLTEVESRLERLEQLFLLIFPREDLDMILKMDSLQDIKALLTGLFVQDNVNKDAVTDRLASVETDMPLTLRQHRISATSSSEESSNKGQRQLTVSEFPELLAMTRWGRHAALLEPQRLPPPRTTTQPQTEFERMFFFTRPMRTTGLLDLQPS
**Q.** Which “β-galactosidase activity, yeast two-hybrid; CPA” value [5] does the source give for B1 here?
**A.** 0.292

**Q.** What about the “β-galactosidase activity, yeast two-hybrid; DHT” value [5] of the same molecule?
**A.** 1.72

**Q.** And the “β-galactosidase activity, yeast two-hybrid; No Lig” value [5]?
**A.** 0.371

**Q.** And the “β-galactosidase activity, yeast two-hybrid; RU” value [5]?
**A.** 0.5

**Q.** What about the “Fold induction, yeast two-hybrid” value [6] of the same molecule?
**A.** 5 fold

**Q.** With SSLDLSQFPMTASFLRESR (also called 35Eβ) [β II (B2)] as the molecule, how does the “phage ELISA grade” value [4] read?
**A.** 0

B2: M4D1 (peptide)
chain: MKLLSSIEQACDICRLKKLKCSKEKPKCAKCLKNNWECRYSPKTKRSPLTRAHLTEVESRLERLEQLFLLIFPREDLDMILKMDSLQDIKALLTGLFVQDNVNKDAVTDRLASVETDMPLTLRQHRISATSSSEESSNKGQRQLTVSEFRFPFHEMVREWESMGLERVRYAEP
**Q.** Which results are given for B2?
**A.** β-galactosidase activity, yeast two-hybrid; CPA [5]: -0.0396; β-galactosidase activity, yeast two-hybrid; DHT [5]: 0.395; β-galactosidase activity, yeast two-hybrid; No Lig [5]: 0; β-galactosidase activity, yeast two-hybrid; RU [5]: 0.1; Fold induction, yeast two-hybrid [6]: > 2 fold

B3: B8A10 (peptide)
chain: MKLLSSIEQACDICRLKKLKCSKEKPKCAKCLKNNWECRYSPKTKRSPLTRAHLTEVESRLERLEQLFLLIFPREDLDMILKMDSLQDIKALLTGLFVQDNVNKDAVTDRLASVETDMPLTLRQHRISATSSSEESSNKGQRQLTVSEFVNWDAVVPWSELVALLDLQPS
**Q.** Which “β-galactosidase activity, yeast two-hybrid; CPA” value [5] does the source give for B3 here?
**A.** 0.395

**Q.** And the “β-galactosidase activity, yeast two-hybrid; DHT” value [5]?
**A.** 0.616

**Q.** And the “β-galactosidase activity, yeast two-hybrid; No Lig” value [5]?
**A.** 0.875

**Q.** And the “β-galactosidase activity, yeast two-hybrid; RU” value [5]?
**A.** 0.4

**Q.** And the “Fold induction, yeast two-hybrid” value [6]?
**A.** 1 fold

B4: M2H3 (peptide)
chain: MKLLSSIEQACDICRLKKLKCSKEKPKCAKCLKNNWECRYSPKTKRSPLTRAHLTEVESRLERLEQLFLLIFPREDLDMILKMDSLQDIKALLTGLFVQDNVNKDAVTDRLASVETDMPLTLRQHRISATSSSEESSNKGQRQLTVSEFRQSFVSEILGGGWLPLDLQPS
**Q.** Which “β-galactosidase activity, yeast two-hybrid; CPA” value [5] does the source give for B4 here?
**A.** 8.59

**Q.** And the “β-galactosidase activity, yeast two-hybrid; DHT” value [5]?
**A.** 24.1

**Q.** And the “β-galactosidase activity, yeast two-hybrid; No Lig” value [5]?
**A.** 2.53

**Q.** What about the “β-galactosidase activity, yeast two-hybrid; RU” value [5] of the same molecule?
**A.** 6.8

**Q.** And the “Fold induction, yeast two-hybrid” value [6]?
**A.** 10 fold

— patent US20030224390A1, “Method of identifying conformation-sensitive binding peptides and uses thereof” (Karo Bio AB, priority 2000, published 2003)
